Series [1] concerns the target T1, human RXFP1 receptor (Homo sapiens, UniProt Q9HBX9).
T1 construct: expressed in transfected cells
T1 sequence (Q9HBX9 1-757): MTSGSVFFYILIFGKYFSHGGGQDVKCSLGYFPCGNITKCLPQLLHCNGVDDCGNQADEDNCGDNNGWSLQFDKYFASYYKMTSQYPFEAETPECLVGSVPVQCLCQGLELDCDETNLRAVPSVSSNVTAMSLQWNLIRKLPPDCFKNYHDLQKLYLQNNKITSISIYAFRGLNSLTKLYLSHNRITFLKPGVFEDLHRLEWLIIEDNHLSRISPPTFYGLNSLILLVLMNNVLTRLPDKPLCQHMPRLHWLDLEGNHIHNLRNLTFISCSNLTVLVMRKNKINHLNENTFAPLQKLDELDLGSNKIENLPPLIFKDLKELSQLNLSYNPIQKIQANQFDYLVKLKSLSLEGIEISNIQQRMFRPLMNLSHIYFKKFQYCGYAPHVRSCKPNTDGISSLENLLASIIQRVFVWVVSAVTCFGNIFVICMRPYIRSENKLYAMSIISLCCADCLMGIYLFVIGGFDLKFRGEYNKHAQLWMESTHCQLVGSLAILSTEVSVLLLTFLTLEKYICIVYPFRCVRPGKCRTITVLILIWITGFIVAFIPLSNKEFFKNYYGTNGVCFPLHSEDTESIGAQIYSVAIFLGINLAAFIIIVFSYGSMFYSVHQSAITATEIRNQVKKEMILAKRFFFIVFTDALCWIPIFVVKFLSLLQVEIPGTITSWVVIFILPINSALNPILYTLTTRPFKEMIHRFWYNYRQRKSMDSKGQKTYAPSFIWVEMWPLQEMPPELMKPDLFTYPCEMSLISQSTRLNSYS
Description: Intracellular cAMP accumulation assay. The format is cell-based. For orientation: Changes in cAMP serve as a functional read-out for many G protein-coupled receptors.

A short description of series [2]: In vivo pharmacokinetic (PK) studies in rats. More on the design: species or system Sprague-Dawley rats. The following applies: rat, male Sprague-Dawley rats, single SC dose 1.0 mg/kg, serum ELISA; for AUC(0-inf): read-out: Rat PK AUC Total; for level at time molar at 24 h: read-out: Rat PK C24. The procedure:
[…] Blood samples were collected via jugular vein at different time points out to 72 hours. Blood samples were allowed to coagulate at room temperature (30-60 m) and then centrifuged (1500-2000) at 4° C. to obtain serum. After centrifugation serum samples were transferred to 96 well plates and stored at −80° C. until bioanalysis. Relaxin concentrations were measured from serum by ELISA.
Relaxin concentration-time profiles from individual animals were used for analysis. Pharmacokinetic parameters were calculated by non-compartmental methods using Phoenix WinNonlin (version 6.4) or Kinetica (version 5). Mean pharmacokinetic parameters Cmax, AUCinf, C24 and half-life were reported (Table 4). Table 4. In vivo PK data (abbreviations as in Table 3).
(In general: In an ELISA, binding on a coated surface is turned into a signal by an enzyme label.)

`CC[C@H](C)[C@@H]1NC(=O)[C@H](C)NC(=O)[C@H]([C@@H](C)CC)NC(=O)[C@H](CCC(N)=O)NC(=O)[C@H](C)NC(=O)[C@H](CCCNC(=N)N)NC(=O)[C@H](C(C)C)NC(=O)[C@H](CC(C)C)NC(=O)[C@H](CCC(=O)O)NC(=O)[C@H](CCCNC(=N)N)NC(=O)CNC(=O)[C@@H](NC(=O)[C@H](CC(C)C)NC(=O)[C@H](CCCCN)NC(=O)[C@@H](NC(=O)[C@@H](NC(=O)[C@H](CCC(=O)O)NC(=O)[C@H](CCC(=O)O)NC(=O)[C@H](CCSC)NC(=O)[C@H](Cc2c[nH]c3ccccc23)NC(=O)[C@H](CO)NC(=O)[C@H](C)N)C(C)C)[C@@H](C)CC)CSSC[C@@H]2NC(=O)[C@@H](NC(=O)[C@H](CCCCN)NC(=O)[C@H](CC(N)=O)NC(=O)[C@H](C)NC(=O)[C@H](CC(C)C)NC(=O)[C@H](C)NC(=O)[C@H](CO)NC(=O)[C@H](Cc3ccc(O)cc3)NC(=O)[C@H](CC(C)C)NC(=O)[C@@H](N)Cc3ccc(/C(C)=N/OCCNC(=O)CN(C)C(=O)CN(C)C(=O)CN(C)C(=O)CN(C)C(=O)[C@H](CO)NC(=O)CN(C)C(=O)CN(C)C(=O)CN(C)C(=O)CN(C)C(=O)CC[C@H](NC(=O)CCCCCCCCCCCCC(=O)O)C(=O)O)cc3)CSSC[C@H](NC(=O)CNC(=O)[C@H](C(C)C)NC(=O)[C@H](Cc3c[nH]cn3)NC2=O)C(=O)N[C@@H]([C@@H](C)O)C(=O)N[C@@H](CCCCN)C(=O)N[C@@H](CCCNC(=N)N)C(=O)N[C@@H](CO)C(=O)N[C@@H](CC(C)C)C(=O)N[C@@H](C)C(=O)N[C@@H](CCCNC(=N)N)C(=O)N[C@@H](Cc2ccccc2)C(=O)N[C@H](C(=O)O)CSSC[C@@H](C(=O)NCC(=O)N[C@@H](CCSC)C(=O)N[C@@H](CO)C(=O)N[C@H](C(=O)N[C@@H](Cc2c[nH]c3ccccc23)C(=O)N[C@@H](CO)C(=O)O)[C@@H](C)O)NC1=O`: in series [1], the response was half-maximal at 0.39 nM (EC50).
As for `CC[C@H](C)[C@@H]1NC(=O)[C@H](C)NC(=O)[C@H]([C@@H](C)CC)NC(=O)[C@H](CCC(N)=O)NC(=O)[C@H](C)NC(=O)[C@H](CCCNC(=N)N)NC(=O)[C@H](C(C)C)NC(=O)[C@H](CC(C)C)NC(=O)[C@H](CCC(=O)O)NC(=O)[C@H](CCCNC(=N)N)NC(=O)CNC(=O)[C@@H](NC(=O)[C@H](CC(C)C)NC(=O)[C@H](CCCCN)NC(=O)[C@@H](NC(=O)[C@@H](NC(=O)[C@H](CCC(=O)O)NC(=O)[C@H](CCC(=O)O)NC(=O)[C@H](CCSC)NC(=O)[C@H](Cc2c[nH]c3ccccc23)NC(=O)[C@H](CO)NC(=O)[C@H](C)N)C(C)C)[C@@H](C)CC)CSSC[C@@H]2NC(=O)[C@@H](NC(=O)[C@H](CCCCN)NC(=O)[C@H](CC(N)=O)NC(=O)[C@H](C)NC(=O)[C@H](CC(C)C)NC(=O)[C@H](C)NC(=O)[C@H](CO)NC(=O)[C@H](Cc3ccc(O)cc3)NC(=O)[C@H](CC(C)C)NC(=O)[C@@H](N)Cc3ccc(C(C)=NOCCNC(=O)[C@H](CCCCN)NC(=O)[C@H](CCCCN)NC(=O)CC[C@H](NC(=O)CCCCCCCCCCCCCCC(=O)O)C(=O)O)cc3)CSSC[C@H](NC(=O)CNC(=O)[C@H](C(C)C)NC(=O)[C@H](Cc3c[nH]cn3)NC2=O)C(=O)N[C@@H]([C@@H](C)O)C(=O)N[C@@H](CCCCN)C(=O)N[C@@H](CCCNC(=N)N)C(=O)N[C@@H](CO)C(=O)N[C@@H](CC(C)C)C(=O)N[C@@H](C)C(=O)N[C@@H](CCCNC(=N)N)C(=O)N[C@@H](Cc2ccccc2)C(=O)N[C@H](C(=O)O)CSSC[C@@H](C(=O)NCC(=O)N[C@@H](CCSC)C(=O)N[C@@H](CO)C(=O)N[C@H](C(=O)N[C@@H](Cc2c[nH]c3ccccc23)C(=O)N[C@@H](CO)C(=O)O)[C@@H](C)O)NC1=O` [AQ1-KK-Glu^γ-C15-COOH], in series [2], the AUC(0-inf) came out at 0.82 µM·h and the level at time molar at 24 h came out at 8.8 nM.
The like results for `CC[C@H](C)[C@@H]1NC(=O)[C@H](C)NC(=O)[C@H]([C@@H](C)CC)NC(=O)[C@H](CCC(N)=O)NC(=O)[C@H](C)NC(=O)[C@H](CCCNC(=N)N)NC(=O)[C@H](C(C)C)NC(=O)[C@H](CC(C)C)NC(=O)[C@H](CCC(=O)O)NC(=O)[C@H](CCCNC(=N)N)NC(=O)CNC(=O)[C@@H](NC(=O)[C@H](CC(C)C)NC(=O)[C@H](CCCCN)NC(=O)[C@@H](NC(=O)[C@@H](NC(=O)[C@H](CCC(=O)O)NC(=O)[C@H](CCC(=O)O)NC(=O)[C@H](CCSC)NC(=O)[C@H](Cc2c[nH]c3ccccc23)NC(=O)[C@H](CO)NC(=O)[C@H](C)N)C(C)C)[C@@H](C)CC)CSSC[C@@H]2NC(=O)[C@@H](NC(=O)[C@H](CCCCN)NC(=O)[C@H](CC(N)=O)NC(=O)[C@H](C)NC(=O)[C@H](CC(C)C)NC(=O)[C@H](C)NC(=O)[C@H](CO)NC(=O)[C@H](Cc3ccc(O)cc3)NC(=O)[C@H](CC(C)C)NC(=O)[C@@H](N)Cc3ccc(C(C)=NOCCNC(=O)[C@H](CCCCN)NC(=O)[C@H](CCCCN)NC(=O)[C@H](CCCCN)NC(=O)[C@H](CCCCN)NC(=O)[C@H](CCCCN)NC(=O)[C@H](CCCCN)NC(=O)CC[C@H](NC(=O)CCCCCCCCCCCCC(=O)O)C(=O)O)cc3)CSSC[C@H](NC(=O)CNC(=O)[C@H](C(C)C)NC(=O)[C@H](Cc3c[nH]cn3)NC2=O)C(=O)N[C@@H]([C@@H](C)O)C(=O)N[C@@H](CCCCN)C(=O)N[C@@H](CCCNC(=N)N)C(=O)N[C@@H](CO)C(=O)N[C@@H](CC(C)C)C(=O)N[C@@H](C)C(=O)N[C@@H](CCCNC(=N)N)C(=O)N[C@@H](Cc2ccccc2)C(=O)N[C@H](C(=O)O)CSSC[C@@H](C(=O)NCC(=O)N[C@@H](CCSC)C(=O)N[C@@H](CO)C(=O)N[C@H](C(=O)N[C@@H](Cc2c[nH]c3ccccc23)C(=O)N[C@@H](CO)C(=O)O)[C@@H](C)O)NC1=O` [AQ1-KKKKKK-Glu^γ-C13-COOH] were, in that order, 0.038 µM·h and 0.05 nM.
For `CC[C@H](C)[C@@H]1NC(=O)[C@H](C)NC(=O)[C@H]([C@@H](C)CC)NC(=O)[C@H](CCC(N)=O)NC(=O)[C@H](C)NC(=O)[C@H](CCCNC(=N)N)NC(=O)[C@H](C(C)C)NC(=O)[C@H](CC(C)C)NC(=O)[C@H](CCC(=O)O)NC(=O)[C@H](CCCNC(=N)N)NC(=O)CNC(=O)[C@@H](NC(=O)[C@H](CC(C)C)NC(=O)[C@H](CCCCN)NC(=O)[C@@H](NC(=O)[C@@H](NC(=O)[C@H](CCC(=O)O)NC(=O)[C@H](CCC(=O)O)NC(=O)[C@H](CCSC)NC(=O)[C@H](Cc2c[nH]c3ccccc23)NC(=O)[C@H](CO)NC(=O)[C@H](C)N)C(C)C)[C@@H](C)CC)CSSC[C@@H]2NC(=O)[C@@H](NC(=O)[C@H](CCCCN)NC(=O)[C@H](CC(N)=O)NC(=O)[C@H](C)NC(=O)[C@H](CC(C)C)NC(=O)[C@H](C)NC(=O)[C@H](CO)NC(=O)[C@H](Cc3ccc(O)cc3)NC(=O)[C@H](CC(C)C)NC(=O)[C@@H](N)Cc3ccc(C(C)=NOCCNC(=O)[C@H](CCCCN)NC(=O)[C@H](CO)NC(=O)CNC(=O)CNC(=O)[C@H](CO)NC(=O)CNC(=O)CNC(=O)CC[C@H](NC(=O)CCCCCCCCCCCCC(=O)O)C(=O)O)cc3)CSSC[C@H](NC(=O)CNC(=O)[C@H](C(C)C)NC(=O)[C@H](Cc3c[nH]cn3)NC2=O)C(=O)N[C@@H]([C@@H](C)O)C(=O)N[C@@H](CCCCN)C(=O)N[C@@H](CCCNC(=N)N)C(=O)N[C@@H](CO)C(=O)N[C@@H](CC(C)C)C(=O)N[C@@H](C)C(=O)N[C@@H](CCCNC(=N)N)C(=O)N[C@@H](Cc2ccccc2)C(=O)N[C@H](C(=O)O)CSSC[C@@H](C(=O)NCC(=O)N[C@@H](CCSC)C(=O)N[C@@H](CO)C(=O)N[C@H](C(=O)N[C@@H](Cc2c[nH]c3ccccc23)C(=O)N[C@@H](CO)C(=O)O)[C@@H](C)O)NC1=O` [AQ1-KSGGSGG-Glu^γ-C13-COOH], in that order: 0.814 µM·h and 0.73 nM.

In general, EC50 refers to the concentration that produces a half-maximal response.

(Values after patent US12097241B2, “Methods of treating kidney failure, and/or improving or stablizing renal function using modified relaxin polypeptides” (BRISTOL-MYERS SQUIBB COMPANY, priority 2017, dated 2024).)
